Reference: paper PMC3531493, “Inhibition of a NEDD8 Cascade Restores Restriction of HIV by APOBEC3G” (PLoS Pathogens, 2012)

T1: UBE2F residues 26-185 (UBE2F core) (UniProt Q969M7 26-185)
T1 construct: UBE2F, residues 26-185 (UBE2F core); Unlabelled when added to 15N RBX2 RING; 15N-labelled when RBX2 RING was added to it; source: E. coli BL21(DE3)-Star or BL21(DE3), purified (Ni-NTA, TEV cleavage, SEC)
T1 sequence (looked up): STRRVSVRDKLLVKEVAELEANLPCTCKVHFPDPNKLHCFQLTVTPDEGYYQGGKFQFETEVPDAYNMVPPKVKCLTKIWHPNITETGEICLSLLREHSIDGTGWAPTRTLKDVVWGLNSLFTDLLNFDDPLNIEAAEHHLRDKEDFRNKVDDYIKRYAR

T2: UBE2F, full-length (UniProt Q969M7 1-185)
T2 construct: UBE2F, NEDD8-conjugating enzyme, full-length; Unlabelled in the HSQC experiments on 15N-labelled RBX2 RING; also called NEDD8 E2; NEDD8-conjugating enzyme UBE2F; source: E. coli BL21(DE3)-Star or BL21(DE3), purified (Ni-NTA, TEV cleavage, SEC)
T2 sequence (looked up): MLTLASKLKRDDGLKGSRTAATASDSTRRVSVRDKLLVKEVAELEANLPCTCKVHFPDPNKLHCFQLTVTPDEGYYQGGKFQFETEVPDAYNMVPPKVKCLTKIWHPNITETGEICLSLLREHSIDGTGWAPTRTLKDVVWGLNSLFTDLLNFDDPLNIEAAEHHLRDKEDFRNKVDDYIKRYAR

B1: RBX2 RING domain (44-113) (domain or fragment, UniProt Q9UBF6 44-113, looked up)
chain: DVECDTCAICRVQVMDACLRCQAENKQEDCVVVWGECNHSFHNCCMSLWVKQNNRCPLCQQDWVVQRIGK
notes: RBX2 (RING-box protein 2), RING domain, residues 44-113; 15N-labelled when the E2 enzymes were added to it; unlabelled when added to 15N UBE2F core; also called RBX2 core domain; source: E. coli BL21(DE3)-Star or BL21(DE3), with ZnCl2, purified (Ni-NTA, TEV cleavage, SEC)

What was measured:
CUL5/RBX2 complex = CUL5/RBX2 complex (UniProt Q93034)
Chain of CUL5/RBX2 complex (Q93034 whole entry, the tested form may be a part, one chain of several): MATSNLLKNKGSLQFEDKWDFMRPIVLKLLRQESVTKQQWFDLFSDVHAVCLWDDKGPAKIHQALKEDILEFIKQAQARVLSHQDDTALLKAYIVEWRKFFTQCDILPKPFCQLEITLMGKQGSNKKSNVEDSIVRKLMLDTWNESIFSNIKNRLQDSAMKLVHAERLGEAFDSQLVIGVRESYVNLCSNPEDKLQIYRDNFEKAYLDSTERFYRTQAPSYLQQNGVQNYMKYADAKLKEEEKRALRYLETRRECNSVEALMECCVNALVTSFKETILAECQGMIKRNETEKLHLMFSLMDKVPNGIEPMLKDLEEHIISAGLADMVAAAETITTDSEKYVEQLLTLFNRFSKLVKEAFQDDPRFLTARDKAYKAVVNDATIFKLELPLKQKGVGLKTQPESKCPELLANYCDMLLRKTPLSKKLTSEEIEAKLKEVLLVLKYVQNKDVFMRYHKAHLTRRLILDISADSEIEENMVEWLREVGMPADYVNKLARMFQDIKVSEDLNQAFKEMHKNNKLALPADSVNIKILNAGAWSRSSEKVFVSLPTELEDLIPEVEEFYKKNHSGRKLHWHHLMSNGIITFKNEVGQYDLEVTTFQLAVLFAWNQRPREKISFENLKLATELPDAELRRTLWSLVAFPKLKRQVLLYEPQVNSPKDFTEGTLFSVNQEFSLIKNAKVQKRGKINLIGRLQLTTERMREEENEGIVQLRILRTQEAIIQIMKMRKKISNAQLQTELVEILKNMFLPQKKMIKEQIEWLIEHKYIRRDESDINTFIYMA

[1] = target: T1, UBE2F residues 26-185 (UBE2F core); assay: NMR titration; 15N-HSQC of 50 µM 15N-labelled RBX2 RING with unlabelled E2 added (∼100 µM in Fig. 3D; increasing concentrations in Fig. 5D); 20°C; 100 mM NaCl, 1 mM DTT, 25 mM HEPES pH 7.5; details: both partners purified
UBE2F, full-length = target: T2, UBE2F, full-length; assay: as above; details: both partners purified

Molecule	rate of NEDD8 transfer from UBE2F mutant to CUL5/RBX2 (pulse-chase), against wild-type UBE2F (orders of magnitude (reduction)) (CUL5/RBX2 complex)	binding result [1]	binding result (UBE2F, full-length)
UBE2F (N92A) (from UniProt Q969M7 26-185) (enzyme)	3	–	–
B1	–	binds	binds
